Our source for the interaction score values is article PMC10397247.

One assay deals with T1, 4H741-bH.
T1 chain: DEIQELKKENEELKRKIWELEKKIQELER
Briefly: two-hybrid library CCNG1.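 Further: natural log of median RNA to DNA barcode read ratio; higher means stronger binding.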

The target in a further assay is T2, 4H492-bH.
T2 chain: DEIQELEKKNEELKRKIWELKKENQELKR
In words: two-hybrid library CCNG1.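 Further: natural log of median RNA to DNA barcode read ratio; higher means stronger binding.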

In another assay the target is T3, 4H477-bH.
T3 chain: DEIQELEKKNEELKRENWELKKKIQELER
In words: two-hybrid library CCNG1.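 Further: natural log of median RNA to DNA barcode read ratio; higher means stronger binding.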

A further assay concerns the target T4, 4H932-bH.
T4 chain: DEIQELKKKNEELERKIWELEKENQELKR
Briefly: two-hybrid library CCNG1.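 Further: natural log of median RNA to DNA barcode read ratio; higher means stronger binding.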

A further assay addresses T5, 4H56-bH.
T5 chain: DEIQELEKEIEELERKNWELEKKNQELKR
Briefly: two-hybrid library CCNG1.

The target in a further assay is T6, 4H949-bH.
T6 chain: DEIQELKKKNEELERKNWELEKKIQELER
Briefly: two-hybrid library CCNG1.

A further assay concerns the target T7, 4H730-bH.
T7 chain: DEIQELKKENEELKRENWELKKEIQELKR
Briefly: two-hybrid library CCNG1.

The target of the next assay is T8, 4H796-bH.
T8 chain: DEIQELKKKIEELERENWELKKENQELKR
Briefly: two-hybrid library CCNG1.

A further assay deals with T9, 4H2949-AA.
T9 chain: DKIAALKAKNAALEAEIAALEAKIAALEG
Briefly: two-hybrid library CCmax. As to conditions: mean of both orientations.

Another assay deals with T10, 4H3427-AA.
T10 chain: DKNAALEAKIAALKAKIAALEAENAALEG
Briefly: two-hybrid library CCmax. The following applies: mean of both orientations.

Another assay concerns the target T11, 4H342-AA.
T11 chain: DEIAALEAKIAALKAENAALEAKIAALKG
In words: two-hybrid library CCmax. As to conditions: mean of both orientations.

A further assay addresses T12, 4H678-AA.
T12 chain: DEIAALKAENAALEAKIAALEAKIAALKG
Briefly: two-hybrid library CCmax. The following applies: mean of both orientations.

The target of another assay is T13, 4H3112-AA.
T13 chain: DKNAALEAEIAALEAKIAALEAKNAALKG
In words: two-hybrid library CCmax. The following applies: mean of both orientations.

A further assay concerns the target T14, 4H2617-AA.
T14 chain: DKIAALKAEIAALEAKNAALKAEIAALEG
In words: two-hybrid library CCmax. The following applies: mean of both orientations.

Another assay deals with T15, 4H993-AA.
T15 chain: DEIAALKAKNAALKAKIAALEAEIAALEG
Briefly: two-hybrid library CCmax. As to conditions: mean of both orientations.

The target in the next assay is T16, 4H566-AA.
T16 chain: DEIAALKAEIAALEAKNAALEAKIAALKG
In words: two-hybrid library CCmax. The following applies: mean of both orientations.

In the next assay the target is T17, 4H780-AA.
T17 chain: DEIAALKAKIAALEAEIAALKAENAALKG
In words: two-hybrid library CCmax. As to conditions: mean of both orientations.

The target of the next assay is T18, 4H2505-AA.
T18 chain: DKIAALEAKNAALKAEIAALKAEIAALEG
Briefly: two-hybrid library CCmax.

A further assay deals with T19, 4H3921-AA.
T19 chain: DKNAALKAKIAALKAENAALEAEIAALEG
In words: two-hybrid library CCmax. The following applies: mean of both orientations.

The target in a further assay is T20, 4H3655-AA.
T20 chain: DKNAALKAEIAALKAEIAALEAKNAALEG
In words: two-hybrid library CCmax. The following applies: mean of both orientations.

The target of another assay is T21, 4H317-AA.
T21 chain: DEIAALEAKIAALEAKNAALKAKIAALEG
Briefly: two-hybrid library CCmax. As to conditions: mean of both orientations.

The next assay addresses T22, 4H906-AA.
T22 chain: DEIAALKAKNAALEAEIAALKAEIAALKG
In words: two-hybrid library CCmax. The following applies: mean of both orientations.

The target of a further assay is T23, 4H605-AA.
T23 chain: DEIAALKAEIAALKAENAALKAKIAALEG
In words: two-hybrid library CCmax. The following applies: mean of both orientations.

The next assay deals with T24, 4H2729-AA.
T24 chain: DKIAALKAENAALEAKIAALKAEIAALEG
In words: two-hybrid library CCmax. As to conditions: mean of both orientations.

The target of a further assay is T25, 4H2575-AA.
T25 chain: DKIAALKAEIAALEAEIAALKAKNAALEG
Briefly: two-hybrid library CCmax. The following applies: mean of both orientations.

In a further assay the target is T26, 4H3844-AA.
T26 chain: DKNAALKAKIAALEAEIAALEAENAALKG
In words: two-hybrid library CCmax. As to conditions: mean of both orientations.

In the next assay the target is T27, 4H2883-AA.
T27 chain: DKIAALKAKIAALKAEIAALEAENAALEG
Briefly: two-hybrid library CCmax. The following applies: mean of both orientations.

The target of the next assay is T28, 4H3606-AA.
T28 chain: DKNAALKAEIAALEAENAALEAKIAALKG
In words: two-hybrid library CCmax. The following applies: mean of both orientations.

In another assay the target is T29, 4H2754-AA.
T29 chain: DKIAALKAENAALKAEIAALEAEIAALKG
Briefly: two-hybrid library CCmax. The following applies: mean of both orientations.

The target of the next assay is T30, 4H2642-AA.
T30 chain: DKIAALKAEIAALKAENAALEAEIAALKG
Briefly: two-hybrid library CCmax. The following applies: mean of both orientations.

A further assay concerns the target T31, 4H48-AA.
T31 chain: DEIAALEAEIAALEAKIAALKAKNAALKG
Briefly: two-hybrid library CCmax. The following applies: mean of both orientations.

The next assay deals with T32, 4H881-AA.
T32 chain: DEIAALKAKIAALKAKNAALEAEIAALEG
In words: two-hybrid library CCmax. As to conditions: mean of both orientations.

The target of another assay is T33, 4H717-AA.
T33 chain: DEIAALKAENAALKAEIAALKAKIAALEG
Briefly: two-hybrid library CCmax. The following applies: mean of both orientations.

For another assay, the target named is T34, 4H335-AA.
T34 chain: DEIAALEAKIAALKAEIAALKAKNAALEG
Briefly: two-hybrid library CCmax. The following applies: mean of both orientations.

The target of a further assay is T35, 4H429-AA.
T35 chain: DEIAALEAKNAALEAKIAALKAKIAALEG
Briefly: two-hybrid library CCmax.

In a further assay the target is T36, 4H3627-AA.
T36 chain: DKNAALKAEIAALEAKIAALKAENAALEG
Briefly: two-hybrid library CCmax.

The next assay addresses T37, 4H454-AA.
T37 chain: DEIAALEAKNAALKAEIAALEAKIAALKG
In words: two-hybrid library CCmax. As to conditions: mean of both orientations.

Another assay concerns the target T38, 4H3343-AA.
T38 chain: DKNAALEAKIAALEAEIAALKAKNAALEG
In words: two-hybrid library CCmax. As to conditions: mean of both orientations.

The target of another assay is T39, 4H794-AA.
T39 chain: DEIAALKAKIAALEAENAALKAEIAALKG
In words: two-hybrid library CCmax. As to conditions: mean of both orientations.

In another assay the target is T40, 4H2837-AA.
T40 chain: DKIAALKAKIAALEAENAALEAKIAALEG
In words: two-hybrid library CCmax. As to conditions: mean of both orientations.

A further assay deals with T41, 4H2944-AA.
T41 chain: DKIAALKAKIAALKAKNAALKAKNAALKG
In words: two-hybrid library CCmax. As to conditions: mean of both orientations.

The target of a further assay is T42, 4H906-bH.
T42 chain: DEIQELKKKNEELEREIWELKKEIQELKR
In words: two-hybrid library CCNG1.

A further assay addresses T43, 4H850-bH.
T43 chain: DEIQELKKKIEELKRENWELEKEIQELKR
In words: two-hybrid library CCNG1.

In the next assay the target is T44, 4H619-bH.
T44 chain: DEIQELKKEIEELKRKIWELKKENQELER
In words: two-hybrid library CCNG1.

With DEIQELEKKNEELKRENWELKKKIQELER [4H477-bH], the interaction score with 4H741-bH is -0.234; in the assay with 4H492-bH, -1.31; with 4H477-bH, 0.526.
Consider DEIQELEKEIEELERKNWELEKKNQELKR [4H56-bH], for which the interaction score is -0.0294 in the assay with 4H932-bH; -0.661 with 4H56-bH; -1.15 in the assay with 4H949-bH; -0.307 with 4H730-bH; 0.682 with 4H796-bH.
For the molecule DKIAALEAKNAALKAEIAALKAEIAALEG [4H2505-AA], the interaction score with 4H2949-AA was 1.68; with 4H3427-AA it was -1.04; in the assay with 4H342-AA, 1.06; in the assay with 4H678-AA, 1.78; with 4H3112-AA, -1.11; in the assay with 4H2617-AA it was -0.92. Besides, the interaction score with 4H993-AA is -1.53; with 4H566-AA it was -0.341; with 4H780-AA it was -1.6; with 4H2505-AA, 1.09; in the assay with 4H3921-AA, -0.328; with 4H3655-AA it was -1.61. Also, the interaction score in the assay with 4H317-AA was -1.65; with 4H906-AA, 0.636; with 4H605-AA, -1.14; with 4H2729-AA, 2.02; with 4H2575-AA it was -0.277; in the assay with 4H3844-AA it was -1.01. The interaction score was -0.918 with 4H2883-AA; 1.04 with 4H3606-AA; 1.69 with 4H2754-AA; -0.234 with 4H2642-AA; 0.908 in the assay with 4H48-AA; -1.43 with 4H881-AA. The interaction score in the assay with 4H717-AA was -0.029; in the assay with 4H335-AA, -1.01; with 4H429-AA, 1.6; with 4H3627-AA, -1.54; with 4H454-AA it was 2.21; with 4H3343-AA, -1.59. In addition, the interaction score is -0.881 with 4H794-AA, 1.03 in the assay with 4H2837-AA and -1.9 in the assay with 4H2944-AA.
In the case of DEIQELKKEIEELKRKIWELKKENQELER [4H619-bH], the interaction score with 4H906-bH was -0.349; in the assay with 4H850-bH, 0.196; with 4H619-bH, 0.749.
